# Experimental data as given in the NTF2 design screens of Basanta et al. (2020).
# Experiment: protease stability score; higher = more stable; yeast display proteolysis, trypsin and chymotrypsin;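 also: relative to predicted unfolded state with 0 unfolded-like and 1 meaning tenfold more protease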
row,Sequence,protease stability score
1,SEDEERTRRISKHMLELYKTGDEDTWIKEADPNTINKIHAENHRIENHGREEVHKVLVELWERLGVKHVDLKDFDMQGEKVIIFIELRAENRIVTNIIRIVIIDGKIKSIEIELRFI,1.21
2,SEKDREMEHFAKILISNLVTGDEEEIFRMADPHYRYQQGDKRIHGREEWRQWLREERERVDHIEFKIHRVEQQGEKIHLDWEIQIEIGNYEIKDKTTIIFIVVDGRLKQIEVRHH,0.786
3,DEHEETMHWALEVIEEFLQTGDERLMEENLDPNVRLEYGDKILVGRELFLELLRRLVEKYKNIRINIHDIKLYDGRLYLDVELRYGDFRSTTRIFSEKYNGRWVDRSYHVE,1.71
4,SEEEWLTEYIWRVFIRLLLTGDERAINKLLDPHVQVDVGDKRIHGRELLSHIWRTEAEEIRHHIEVKRFHSQGEKVHHDVRITIIINGQVHRIEAHIHLFIYDGRITHIEVEFR,1.36
5,DEKEEAARQIMTWLLEVLLTGDERLFEHNADPNVRIDVDGVDLVGMELFRHEVRRIDHMESRMRVRRVTVQGDKVRMEVEIEVTLFINGKEIRHRRESELIVLKIDGRWIIKSTHVK,1.56
6,DESEESALKFLKEWREHFRTGNEDHMEELADPNVRVVIGDKEYHGWEETSRLISEKLRHMRVKFVLHTIRVVDGRIHVKSSLIIEVGDKELRVETSYHFEKVNGRWRLRVIHQE,1.27
7,SEEEKEAEDILRMVIHVLRTGDWHTLKNMLDPHAKNDVNGREQVGMRDWIETFTRIHRELGISNIDFKLHDIRITEHHVLVDGILIFNGKEYRLNLIITKINGRWVNEHIHLH,1.08
8,DDHDKLMQDLTSMFVRDLITGDEKSMDELLDPDVKVDINGQETHGRDHFLEILNKNLKEWRVKDVKIEHVEWYGNKAHIRMEVIGNWNGKEHSLDFELHLLIVNGQFKEIRIKIR,1.5
9,SELKEEVDRWAKRFIHAVETGDEDTILKFMDPHVKSSVGEKVHHGREFLIIIWRELRIRHFTVHHIRVDEDHLIIHMEWQGHVNGKEIRLEVDLFIRKVDGVWIMKHIEIR,2.03
10,DDSRRVAEEVSELIKILYDTGDWRHLHELLDPHVRIEIGDKEFHGRDTWLREMIRADHVEYHTHDYRSQGNKIFIRGHLIVHINGRTHKEDVRLHVHKVDGQWIIDSIEMK,1.01
11,SEKDELLDEILEKLRHDVETGNERLIRKNLDPHVKTDFNGRELHGMDLALRVWREHHEKVKNIRLEIKSVESVDGVVIIHMHVEIDGRHLDVILRWFVVNGRVKSVEIEIK,0.232
12,DKTTEEAERDAREVTRLHRTGDEEYLEKYFDPHVKLEFNGRDVHGMELASEILKKVRRDLGVDHIEVKHVELDVQGEWIHVHLNLRVFFDGRETRYEYNVHVRKIDGKWIIKHVIVRVS,1.34
13,DDMEEMAKEVFREWFEIVETGDEEKLLKLIDPNTRVDINGQEVHGREDISRITSKLIRELGVKHIRSEVKSFDIVGNKIRVRGLEIRDVGDKHKEIHTHFFIMKIDGKWVITNMHFH,1.5
14,DEIEEKIETHIKILLHASRTGDWELNSHNADPHTRIDIDGVELHGMEHFFTIMKEMRMKEYTLHHIEVQGEKIRIRGELRGEWDGKEEVVDVILIIVKIDGKWLIKEVRFR,1.07
15,TEEEELAHEALRRFTREWVTGDEDLLQNLLDPHTKIEIDGRELHGWHEMVRYYRHLGFDVNEFHLHRFHIQGDKIRVDGELRFHVDGRTHTIRFTIVARKVNGKWLNTHEHYK,0.721
16,TEHDQVLLQLSQELFHSVLTGDFDLWTKLMDPNVRVHIISEDEELHRVGWETMIRWLRRFLEELRIHSMRIRRVHHVDGVAHEDGELDGIVDGQRVITRVTLHVITINGRWHSVHLERL,0.801
17,SEEEEMVKVALELLKHSLETGDERLMLRQIDPHAKFDVDGKEHHGRDVFREIEERVDVLHLDHVEIQHVHIQGNKLHIHLEMRSTFLFNGRTFHYRLHYEIIMFKFNGKWLITSLQLR,0.485
18,DEKEKEFKEVWKRILEILLTGDEEELTRMADPHARLDVNGVERHGREEMSKYIRHWHEKVKNARFWIHSIHVVGEKVVIDTEIQIGDKRIRYIVHFIVVDGRIKEIHVHEEII,2.12
19,EEDHEIVEKMLKMLFHSWHTGDEKLFKTLVDPNAKFVIGDKTFHGREFYKFLHDRFDHFRMHDITVRKVEHFDGRLIAHVEIHWRLHIGDKTETEVTESHIIIEKIDGKWRNRSIIVH,1.76
20,GEKEELSRLALHLWFRDYHTGDEDSAHRLLDPNVRLHVGDKHFVGRERFTRFWHEVYRELRIDDYILHSEDIQGDKIHMDGRIDGVVGDKREDFRTEIHLIWIDGKLHSEKRDKE,0.902
21,DEDERDARKTSHLFLEAFTTGDEDLLRDMVDPNARSIVNGQEEHGWEVIHKTVRELQERYPNVKIDVNDWSYEVQGDKMRTILHFIIHFDGVHVEIHIHVFSRKINGRWVIRRIEYHER,2.07
22,DDKEEHWHELNRIYFEWFRTGDEELIAKNADPNVRYHIDGREFHGREDFDKLMDHLSRKFKNARIEFDDMRWQGDKLHLRGTLRVGDKNIDTRIHIVIVNGQLHLIIHIRD,1.31
23,DESTRDVKEMVEWFLRTLHTGDEHLLEHLLDPDVRVLIDGREHHGRETMREIWKEHIDKIKGAVIEIKRIEVRIQGNKAHLHVDTVLHYNGRNLDTHIEIIITKINGQWRVREVEIRVR,2.21
24,SEHEELLERIAEFVMKSWITGNEELDERLADPDARSIVNGKHLHGRELHSEFLRKLLEQLRIHHIHMTDRRVFDGRAIEHSVVHGEIDGVKVTVEVHIRVVVINGRLKSLRIEIR,0.149
25,REWKEEMLRFLTRWNKAYKTGNEQELNKLADPNVRVDINGKQLHGRELATLIVSELRIEETHVKMDTFRIVGEKAEIDSRLEIHGVYDGVKMDTHHEVVIILRKVDGQWHLTTMEER,0.382

row,Sequence,protease stability score
1,SEMDEASKLALKLLEHMVRTGDEHLSEHLVDPHARLFQGDKVEWGRERMTRQLHEWRVRDFKLKRVHVYNGRIEVDGVLNGTVDGVDENRDVRLIITKIDGQWLIKSVIIE,0.474
2,DEDEEEMEKMSREISEMLLTGDFDRLLELLDPNYRLRIGDKDLHGREEAKKHMHELFRHLGVDKFEVRLKQVELVDGVIWVHIEQRYDGRDFQIHVINKKIDGRWHVRRVEFE,1.72
3,SSEEKRDKDAVELFLKILHTGNFELFRELFDPNTRWEYGDKELIGMELIVTWWFEFVRDRGVEVELHRIDRINGRVVLETTMRIGDKQTSTHVHVIVINGVFHEVRFRFH,1.29
4,RELEESSKFFLKLIIEAFLTGDERTNSELADPNVRIHIGEFHYHGREEFSKLMEELVKRVKNATVINDIDHIEVQGEKIKMDGRLILIYNGRIFETRTSLIVVKIDGRWLIESVHVK,1.48
5,DEDKEDLDDWFKRWEEALRTGDEKTLLRLMDPDTRLIFENHERHGMEEIFDMLHKHLNRVDHIHDFILRRDDSQGDKVRYDGQEDGIVDGVRDILKVIIYMIKIDGRWLMEELEFH,1.26
6,DEDDELEDKFEEILRYSLHTGDWEEWRKRVDPHVKLIINGREIIGMERAAKFFIDLERKLGVDVKHHEIRHEDKQGDKLHLETRVELRQGDKVIILHMHLHLEKINGQWIIREVRFD,1.47
7,DEHEREMHRLVDLLIKLLETGDEEISLRLADPHTRHDINGVHDHGRDKWEKSWEEHKKHLGWRIHYRIRDFRTQGDKARMEIQVDLHIGDKNIHLETHLLLISIDGVIKEIRIIIL,1.39
8,DEDFEHARRVLELFIESVETGDENSYRRLADPNTRYHAENHEHHGREYYIRLLEELRMSVHDLKIESWRLVDGQLRLNTRTDLHVNVNGQRIRLDTETHIVLNKINGRWYIHIIYIG,1.27
9,DREKEFVKEFFTMLHNVLHTGDFKLFEKMLDPRYRVEIGDKEAHGREEVLRWFHEYMRIAGIDHIELHLHNFDYQGDKVRMDTIVILIQGDKTFHLDVRIVVKKIDGQWINQTERIH,1.42
10,SEEDTERTERFELMLHSWLTGDEEFWEKNADPNARLKLLVNGRDIRFHGREMVSEAIRKTLDDLGVDHRRIEHKEVQGDKVHIHQKIDVGDKELKVRIVVVVINGRNEMIIVEVI,2.26
11,DEEESRIEKVNRRWLRAYATGDEDTLNHLIDPRVRMDIDGVDLHGREEFEEWLRRIDVIRTFELKFMHIQGEKVNNDVQFDTRIDGQNRSVRNKLIIEKVDGKWVVKTIHFI,0.228
12,SEDDEKIERWLHIILRAFETGDERILQELMDPNTRMDINGVEIHGRERVTKELHRIRKELGADHIEVRLTDEKRVNGRLRLHTQLHFHQGNKLIIIESRILFEKYDGKWMIESMSEK,1.05
13,DEEEELAKEMLERFNKSLHTGDEESIERLLDPDVRVIFNGKDLIGRETVADFLKEWRMSVHTFEIRRFHSQGEKMHLDGHTEIKIHFNGKTVHLNHRVEHHMHKVNGRWTIHSIQFL,1.18
14,DEDEELVETHIRHEIRSAKTGDEESLHRLLDPNTRIEIGDKVFVGRETFTKWLRKLLHDAGVSKFEVHVRDMEIQGEKLILDGEWHINGVTIRTRIIVHKVNGRWHNKHMQME,0.582
15,DDMEKETRQFTKLWIEALETGDEDFIKHLVDPHAKITVNGVEYHGMESMKDELKKIKNVRMEIKDVRVFNGVSKIDMESHFDGRTHDTRIEIFVVDGRFKEVRLHIR,1.01
16,DEDEERIREVVERFLRDWETGDEKSLKHLLDPNVRMIIDGVDIVGREEALRLMKKLVDDLGIKHVHFHRVRLDVQGDKVRSEVDGEFEVGDKHTKVHTLLILRKVDGKWIFESVHMDHK,2.27
17,SEDEDAFNELLKIHVEALHTGDWRSIRELLDPNARVRIDGKEYVGRESVEEHLRRIKNLTIHEIRIDDIRIQGDYVHVDGHVRGHFNGQEELHHVEFIMLKVNGRWRIKEIRIK,2.26
18,SEDERVAFELVVIWSEALITGDEHTSIELLDPNTRIIFNGRDRHGRTFLQEWMKQLRVERIRIHIHHINLQGDKLKVFSELRFVGNVDGVRDEIKTEVVVFLDKIDGRWIVSHIDVH,2.22
19,HEDEEKVKNMVRHEIQALQTGDWDHWLNLADPHVKLYIDGRINHGRHVIRFLVERFDHFRIDHYEVRSINHVDGRVRVNTQLHGQETINGVHEKHTVEVEMTIIKVNGRWYIEHLELE,1.2
20,DEDKHQLDEATKVWLELFLTGNEEELLKLADPDVRIEVDGKHFHGREVMLKLMQEWKHRLGINVDELKRTEIEVIDGKAHVHLDGELYIDGKTFRLDIEVVYEKIDGRWRLKKVRFDIR,2.15
21,DEEEHVAWKIMEVFLEDLLTGDEDMLNRMADPHVRVIINGRENHGRESFEEFVRQIRIEDTRLKHVEIRTIGNKIHIYVHGELRLNINGKRIDRKTTWIFVIQKYDGRWILRFILIDIH,2.31
22,SEEHEDIKKFLDDLHSAWNTGDWKALEHMLDPHVKFEINGRNFVGREEVRKLLEQIRLHPRSEIKDVRMQGEFVIVDGRVKIKINVNGREHHEVQEIILYLRKVNGKWYIEEIEIR,1.54
23,SEEHRQILHVMHLILELWMTGDEETLYHLADPNVRLLIDGREYHGREQIRKVWEDHHRRADHVDFRLKRFELFENHAHVHGEFIIVVNGVEFRHETELELHVVNGRVKEHNLRIK,1.35
24,RESDEEREEFYKLLMHAYETGDERILNELMDPNVQIHQGEWHLHGRKDLRRRFKHLRIDHVDHITRDMRVVGDKIEVHGHIIVEGTVDGVRDTKSFDVHILTEKIDGQWFIKSVHIR,0.903
25,SEREDEMNHSRHLIEDSWRTGDFHITVRLADPHMKVIVGDYEYHGREHLHEVARNADIYHRIHINDWRIIGNKVEIDTEIDGFFNGVPHRTRVEIILSKINGRWILRSIIFR,1.31
